{
  "source": "paper PMC12884786",
  "about": "“Evolution of Multivalent Aptamer Corona for High‐Throughput Multiplexed Detection of Multiple Cancers”",
  "assay_in_all_cases": "SPR; 5 mM Mg2+; SPR (Biacore 8K, CM5 chip, protein immobilized): DPBS with 5 mM Mg2+, 25 C; aptamer 0-1000 nM; pH not stated",
  "conditions_in_all_cases": "protein: commercial",
  "key": {"apolipoprotein C-III": {"biological_target": "apolipoprotein C-III (human, UniProt P02656 21-99)", "sequence (P02656 21-99)": "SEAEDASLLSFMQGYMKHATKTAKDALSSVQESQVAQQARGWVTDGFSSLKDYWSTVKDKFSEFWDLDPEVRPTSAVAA"}, "[1]": {"biological_target": "T1, vitamin K-dependent protein S (human, UniProt P07225 42-676)", "T1 sequence": "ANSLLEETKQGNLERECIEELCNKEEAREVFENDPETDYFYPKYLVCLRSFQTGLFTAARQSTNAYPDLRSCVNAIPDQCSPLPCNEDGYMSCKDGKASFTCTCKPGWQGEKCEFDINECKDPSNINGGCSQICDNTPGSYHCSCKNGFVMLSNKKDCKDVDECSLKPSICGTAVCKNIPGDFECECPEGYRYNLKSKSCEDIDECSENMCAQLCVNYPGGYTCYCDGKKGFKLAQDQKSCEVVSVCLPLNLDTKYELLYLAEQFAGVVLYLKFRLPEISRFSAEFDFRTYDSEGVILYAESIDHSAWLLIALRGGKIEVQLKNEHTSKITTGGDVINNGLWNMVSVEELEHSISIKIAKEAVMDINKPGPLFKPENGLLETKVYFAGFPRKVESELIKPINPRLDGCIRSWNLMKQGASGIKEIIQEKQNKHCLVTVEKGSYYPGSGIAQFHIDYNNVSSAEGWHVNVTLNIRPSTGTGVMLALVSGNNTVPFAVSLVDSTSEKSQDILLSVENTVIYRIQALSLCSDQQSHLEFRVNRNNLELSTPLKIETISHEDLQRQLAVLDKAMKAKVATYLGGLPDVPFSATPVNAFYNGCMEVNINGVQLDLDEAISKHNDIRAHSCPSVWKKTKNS"}, "serum amyloid A2": {"biological_target": "T2, serum amyloid A2 (human, UniProt P0DJI9 19-122)", "T2 sequence": "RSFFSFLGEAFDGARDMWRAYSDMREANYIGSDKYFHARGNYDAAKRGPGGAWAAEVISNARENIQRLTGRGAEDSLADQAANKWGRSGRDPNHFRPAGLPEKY"}, "[2]": {"biological_target": "complement factor H-related protein 1 (human, UniProt Q03591 19-330)", "sequence (Q03591 19-330)": "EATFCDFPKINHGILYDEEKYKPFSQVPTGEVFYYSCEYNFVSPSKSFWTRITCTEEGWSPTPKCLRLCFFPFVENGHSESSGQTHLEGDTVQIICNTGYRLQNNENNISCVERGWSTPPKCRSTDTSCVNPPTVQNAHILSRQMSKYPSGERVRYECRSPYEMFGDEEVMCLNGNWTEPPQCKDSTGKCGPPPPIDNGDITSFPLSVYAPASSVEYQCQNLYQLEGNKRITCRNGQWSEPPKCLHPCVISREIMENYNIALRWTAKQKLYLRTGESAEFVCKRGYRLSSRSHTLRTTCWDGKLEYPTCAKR"}, "[3]": {"biological_target": "complement C1q subcomponent subunit B (human, UniProt P02746 28-253)", "sequence (P02746 28-253)": "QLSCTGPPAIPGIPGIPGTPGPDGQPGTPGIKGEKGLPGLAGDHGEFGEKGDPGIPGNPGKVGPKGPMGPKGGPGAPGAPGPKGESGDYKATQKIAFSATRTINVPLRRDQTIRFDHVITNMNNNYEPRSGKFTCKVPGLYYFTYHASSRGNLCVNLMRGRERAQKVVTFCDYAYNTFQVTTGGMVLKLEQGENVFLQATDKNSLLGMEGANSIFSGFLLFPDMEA"}, "[4]": {"biological_target": "T3, histidine-rich glycoprotein (human, UniProt P04196 19-525)", "T3 sequence": "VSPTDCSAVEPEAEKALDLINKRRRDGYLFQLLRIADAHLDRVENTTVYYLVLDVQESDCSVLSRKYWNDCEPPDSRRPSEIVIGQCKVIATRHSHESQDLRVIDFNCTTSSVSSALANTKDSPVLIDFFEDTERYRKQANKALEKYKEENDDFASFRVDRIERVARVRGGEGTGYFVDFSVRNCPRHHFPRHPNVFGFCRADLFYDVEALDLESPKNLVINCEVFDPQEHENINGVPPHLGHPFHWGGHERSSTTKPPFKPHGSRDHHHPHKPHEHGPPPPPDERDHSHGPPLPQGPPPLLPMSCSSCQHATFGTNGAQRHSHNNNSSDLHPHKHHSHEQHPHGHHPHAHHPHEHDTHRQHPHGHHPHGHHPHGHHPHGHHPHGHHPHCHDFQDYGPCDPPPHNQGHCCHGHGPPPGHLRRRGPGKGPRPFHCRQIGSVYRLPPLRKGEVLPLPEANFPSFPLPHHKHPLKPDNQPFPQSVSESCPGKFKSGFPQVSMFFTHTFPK"}},
  "data": [
    {"binder": "CRC4 (ssDNA) DNA: CAGCACCGTCAACTGAATGCTGAGGGCGGGTGGGTGGCACATTCGATGGTGATGCGATGGAGATGT", "values": [
      {"measurement": "binding result", "setting": "apolipoprotein C-III", "value": "binds"}
    ]},
    {"binder": "CRC7 (ssDNA) DNA: CAGCACCGTCAACTGAATCGGCGGGTGGGTGGGCGGAGATTTAACGTCGTGATGCGATGGAGATGT", "values": [
      {"measurement": "binding result", "setting": "[1]", "value": "binds"}
    ]},
    {"binder": "OV10 (ssDNA) DNA: CAGCACCGTCAACTGAATGAGGTGGGAGGGAGGGGTTGACCTTGCGTGGTGATGCGATGGAGATGT", "values": [
      {"measurement": "binding result", "setting": "serum amyloid A2", "value": "binds"}
    ]},
    {"binder": "CRC5 (ssDNA) DNA: CAGCACCGTCAACTGAATCCTGCGGGCGGGTGGGTGGTTGGATTCTTGGTGATGCGATGGAGATGT", "values": [
      {"measurement": "binding result", "setting": "[2]", "value": "binds"}
    ]},
    {"binder": "OV2 (ssDNA) DNA: CAGCACCGTCAACTGAATGTGGGTGGGTGGGTGGTAAGTTGTGCCGACGTGATGCGATGGAGATGT", "values": [
      {"measurement": "binding result", "setting": "[3]", "value": "binds"}
    ]},
    {"binder": "OV8 (ssDNA) DNA: CAGCACCGTCAACTGAATGAGTCGCGGGTGGGTGGGTGGCCTTGCTCGGTGATGCGATGGAGATGT", "values": [
      {"measurement": "binding result", "setting": "[4]", "value": "binds"}
    ]}
  ]
}
